Source: PMC2801285

Biological target: CaV2.1 (full-length) (UniProt P54282)

| Substance | inhibition of peak IBa (CaV2.1/α2δ-2/β4) on co-expression in Xenopus oocytes [% inhibition] | reduction of peak IBa (CaV2.1/α2δ-2/β4) on co-expression in Xenopus oocytes [% reduction] |
| --- | --- | --- |
| CaV2.1 N terminus (residues 1–100) (from UniProt P54282 1-100) (domain or fragment) | 37.9 | – |
| CaV2.1 N terminus-CAAX (from UniProt P54282 1-100) (domain or fragment) | – | 43.8 |
